Test results published in the nanobody polyreactivity screen of Harvey et al. (2022).

Experiment: yeast display, Sf9 membrane polyspecificity reagent, FACS + sequencing; frameworks hold sequencing errors
Summary of the method: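 Nanobodies from a synthetic yeast display library (Saccharomyces cerevisiae BJ5465), induced 36–48 hours with galactose, were stained 1 hour at 4 °C with 10% biotinylated, detergent-solubilized Sf9 membrane reagent, enriched on streptavidin microbeads, then FACS-sorted. Anti-HA (expression) and streptavidin (reagent binding) fluorescence set low and high (top ~1%) gates. Polyreactivity labels come from the gate of origin. Genes were colony-PCR amplified, MiSeq 2 × 250 sequenced and filtered by CDR length.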

QVQLVESGGGLVQAGGSLRLSCAASGRTFYTYAMGWYRQAPGKERELVAAISSDGSTYYADSVKGRFTISRDNAKNTVYLQMNSLKPEDTAVYYCAADYSPWYWGYTYYYWGQGTQVTVSS
polyreactivity (PSR sort gate): high polyreactivity

QVQLVESGGGLVQAGGSLRLSCAASGFIFARNTMGWYRQAPGKERELVAAITKSGGSTYYADSVKGRFTISRDNAKNTVYLQMNSLKPEDTAVYYCAARTYTLRGVYFSGYNYWGQGTQVTVSS
polyreactivity (PSR sort gate): low polyreactivity

QVQLVESGGGLVQAGGSLRLSCAASGSIFWYYAMGWYRQAPGKERELVARITFSGSRTHYADSVKGRFTISRDNAKNTVYLQMNSLKPEDTSVYYCATDTVYGNDYWGQGTQVTVSS
polyreactivity (PSR sort gate): low polyreactivity

QVQLVETGGGIVQAGASLRLSCAASGRIFPPYAMGWYRQAPGKERELVAAISSSGGSTYYADSVKGRFTISRDNGKNTVYLQMNSLKPEDTAVYYCATFFARGYNSWGQGTQVTVSS
polyreactivity (PSR sort gate): high polyreactivity

QVHLVESGGGLVQAGGSLRLSCAASGSIFTRYVMGWYRQAPGKERELVAAISWSGGSTYYADSVKGRFTISRDNAKNTVYLQMNSLKPEDTAVYYCAAYYWYWSAAWWDEGEMEYWGQGTQVTVSS
polyreactivity (PSR sort gate): high polyreactivity

QVQLVESGGGLVQAGGSLRLSCAASGSTYTHNTMGWYRQAPGKERELVAAISKSGGRTYYADSVKGRFTISRDHAKNTVYLQMNSLKPEVTAVYYCAARVTGVGDYYWGQGTQVTGSS
polyreactivity (PSR sort gate): high polyreactivity

QVQLVESGGGLVQAGGSLRLSCAASGSTFRPSAMGWYRQAPGKERELVAAIRSGRTSYADSVKGRFTISRDYAKNTVYLQMNSLKPEDTAVYYCAKASRGGYYWGQGTQVTVSS
polyreactivity (PSR sort gate): high polyreactivity

QVQLVESGGGLVQAGGSLRLSCAASGYTFKTNDMGRYRQAPGKEREFVAAIDSGGNTYYADSVKGRFTISRDNAKNTVYLQMNSVKPEDTAVYYCGAYRDYQYDYWGQGTQVTVSS
polyreactivity (PSR sort gate): low polyreactivity

QVQLVESGGGLVQAGGSLRLSCAASGRIFGFYTIGWYRQAPGKERELVATISWSGSGTYYADSVKGRFTISRDNAKNTVYLQMNSLKPEDTAVYYCNADWYYVGYDYWGQGTQVTVSS
polyreactivity (PSR sort gate): low polyreactivity

QFQLVESGGGLDQAGGSLRLICAASGITFDTNLMGWYRQAPGKERELVAAISARGGSTYYADSVKGRFTISRDNAKNTVYLQMNSLKPEDTAVYYCNAVIRPWQSYYYWGQGTQVTVSS
polyreactivity (PSR sort gate): high polyreactivity

QVQLVESGGGLVQAGGSLRLSCAASGSTFPVYAMGWYRQAPGKERELVATISYSGGSTNYADSVKGRFTISRDNAKNTVYLQMNSLKPEDTAVYYCAKRYKRYVYWRSHGDYNYWGQGTQVTVSS
polyreactivity (PSR sort gate): high polyreactivity

QVQLVESGGGLVQAGGSLRLICAASGRTFAYYAMGWYRQAPGKERELVAAISSAGRTYYADSVKGRFTISRDNAKNTVYLHMNSLKPEDTSDYYCAVRWLTQFNGRYGSWGQGTQVTVSS
polyreactivity (PSR sort gate): high polyreactivity

QVQLVESGGGLVQAGGSLRLSCAASGSTFGRNAMGWYRQAPGNERELVAAISKRGGSTYYADSVKGRFTISRDNAKNTVYLQMNSLKPEDTAVYYCAKDVEGLGRRYRWYNYWGQGTQVTVSS
polyreactivity (PSR sort gate): high polyreactivity

QVQLVESGGGLVQAGGSLRLSCAASGRIFVKYVMGWYRQAPGKERELVAAISSRGGSTYYADSVKGRFTSSRDNAKNTVYLQMNSLKPEDTAVYYCNKAFTARDDYWGQGTQVTVSS
polyreactivity (PSR sort gate): high polyreactivity

QVQLVESGGGLVQAGGSLRLSCAASGNIFLDYAMGWYRQAPGKEREWVAAITSGGSTNYADSVKGRFTISRDNAKNTVYLQMNSLKPEDTAVYYCNKDVWDGYDWPEFDYWGQGTQVTVSS
polyreactivity (PSR sort gate): low polyreactivity

QLQLVESGGGLVQAGGSLRLSCAASGIIFRYNTKGSYIQAPGKESELVAAIRTTGGSTYYADSVKGRFTISRDNAKNTVYLQMNSLKPEDPAVYYCAAVGFGRQGQEDYWGHGTQVTVSS
polyreactivity (PSR sort gate): low polyreactivity

QVQLVESGGGLVQAGGSLRLSCAPSGIIFSPNAMGLYRQAPGKERELVASISSDSSTNYADSVKGRFSISRDNAKNTVYLQMNSLKPEYTAVYYCAADFVVGQAGDWTFWFDYWGQGTQVTVSS
polyreactivity (PSR sort gate): low polyreactivity

QVQLVESGGGLVQAGGSLRLICADYGITFRVNAMGWYRQAPGKERELVASISRSGGSTYYADSVKGRFTISRDNAKNTVYLQMNSLKPEDTAVYYCAAAQKVLFYGRWFDYWGQCTQVTVSS
polyreactivity (PSR sort gate): low polyreactivity

QVQLVESGGGLVQAGGSLRLSCAASGITFGPNAMGWYRQAPGKERELVAAISWRGGSTYYADSVKGRFTISRDNAKNTVYLQMNSLKPEDTAVYYCAKVQIPASYIRYDYWGQGTQVTLSS
polyreactivity (PSR sort gate): low polyreactivity

QVQLVESGGGLVQAGGSLRLSCAASGSISGWYAMGWYRQAPGKERELVADISSIAGSTYYADSVKGRFTISRDNAKNTVYLQMNSLKPEDTAVYYCAADRGFYYEYDYWGQGTQVTVSS
polyreactivity (PSR sort gate): low polyreactivity

RVQLVESGGGLVQAGGILRLSSAASGSTFPANAMGWYRQAPGKERELVAAITWRAASTYYADSVKGRFTISRDNAKNTVYLQMNSLKPEDTAVYYCARVTNSSAKNTDDYWGQGTQVTVSS
polyreactivity (PSR sort gate): low polyreactivity

QVQLVESGGGLVQAGGSLRLSCAASGSTFVYYAMGWYRQAPGKEREFVAAISYSGGNTYYADSVKGRFTISRDNAMNTVYLQMNSLKPEDTAVYYCAAYYYYFYHKVIWYELDYWGQGTQVTVSS
polyreactivity (PSR sort gate): low polyreactivity

QVQLVESGGGLVQAGGSLRFSCAASGITFVYYARGWYRQAPGKERELVAAITRSGDSTYYADSVKGRFTISRDNAKNTVYLQMNSLKPEDTAVYYCAAESYYSTYQVEYYDWGQGTQVTVSS
polyreactivity (PSR sort gate): high polyreactivity

QVQLVESGGGLVQAGGSLRLSCAASGRTFFWYAMGWYRQAPGKEREFVADINSRGTSTYADSVKGRFTISRDNAKNTVYLQMNSLKPDDTAVYYCAAYRGHLKRYYYWGQGTQVTVSS
polyreactivity (PSR sort gate): high polyreactivity

QVQLVESGGGLVQAGGSLRISCAASGYTFYSNAMGWYRQAPGKERELVASIRSRGRSTYYADSVKGRFTISRDNAKYSVYLQMNSLNPEDTAVYYCAALRNKPAVYAYDYWGQGTQVTVSS
polyreactivity (PSR sort gate): low polyreactivity

QVQLVESWGGLVQAGGSLRLSCAASGLTFNYYDMGWYRQAPGKERELVAAISRSGTNTSYADSVKGRFTISRDNAKNTVYLQMNSLKPEDTAVYYCNAAGVYLAAGPYTANFNYNYWGQGTQVTVSS
polyreactivity (PSR sort gate): low polyreactivity

QVQLVESGGGFVQAGGSLRLSCAASGLIFSWYDMGWYRQAPGKERELVAAITTDGDDTYYADSVKGRFTISRDNAKNTVYLQMNSLKPEDTAVYYCAADSELAIRYPDRDYDSWGQGTQVTVSS
polyreactivity (PSR sort gate): low polyreactivity

QVQIVESGGGLVQAGGSLRLSCAASGSIFGPYVMGWYRQAPGKERELVAAISKSRGSTYYADSVKGRFTISRDNAKNTVYLQMNSLKPEDTAVYYCATDYLGGGKRYYYWGQGTQVTVSS
polyreactivity (PSR sort gate): high polyreactivity

QVQLVESGGGLVQAGGSLRLSCAASGSTFVPNAMGWYRQAPGKERELVAAISYSGGTTYYADSVKGRFTISRDNAKNTVYLQMNSLKPEDTEVYYCAARSKGAAAILDDYWGQGTQVTVSS
polyreactivity (PSR sort gate): low polyreactivity

QVQLVESGGGLVQAGGSLRLSCAASGSIFYYNTMGRYRQAPGKERELVAAIRFDDGSTYYADSVKGRFTISRDNAKNTVYLQMNSLKPEDTAVYYCAADWIVVSEFGLDYHMDYWGQGTQVTVSS
polyreactivity (PSR sort gate): low polyreactivity

QVQLVESGGGLVQAGGSLRLSCAASGSTSYNAMGWYRQAPGKERELVAAISDGGGSTYYADSVKGRFTISRDNAKNTVYLQMNSLKPEDTAVYYCAADTITGDGYWGQGTQVTVSA
polyreactivity (PSR sort gate): low polyreactivity

QVQLVESGGGLVQAGGSLRLSCAASGRILFYYGMGWYRQAPGKERELVAAISKRGGSTYYADSVKGRFTISRDNAKNTVYLQMNSLKPEDTAVYYCAAVQPAWGNGYWGQGTQVTVSS
polyreactivity (PSR sort gate): high polyreactivity
